This is an account of results in the DeepSol protein solubility set.

The nature of this data set: soluble on expression in E. coli; label from the status in PepcDB or PDB records.
On to “MSKVLELAKELGAEVIQTHTSWVLLLKDVVYKIKKPVNFGFLDYSTLEKRKEMCYKEVELNRRLCPWVYIGVVPISEVKGKWVIENDENVVEYAVKMRRIPDEAILSNRLDKTTEEDLKKVAKVVADFHVRAKRVDEFGKMEVMKYNTDENFAQTEKYIGITISKEDYDFIKRKTNEFYEKHADIFEKRIKEGRIRDGHGDIRTEHVAFLEEGVCIFDCIEFNDRFRYGDVLNDMCFLSMELEYFGREYLARAYEEEYRRISKDPDFDLMLPFFKCYRAYVRGKVNSFLLDDPNLTQEEKEKAKERATKFFKLARTYAEMIK”, for which the “soluble on expression in E. coli” value is reported as “not soluble”. To “MAGVRQHGWRAIPAVCSEYGADTLPDRYRSDGRCLLFRQQAGISALKQELEVKTPYRAMNHPVIGVVTKADLASMEQISLVKCWLREAGAHNVLVTSAVNNNGVTELFALLHTEEGCR” belongs “not soluble”; to “MGHHHHHHSHLFQGDDAKEKIAVVDETNELYPVFSKQLKAVDTDGDLDVKLSKQSEDEVTKQVKDESLDGMLIIKRDEKGTISGTYKALTISDESTYQTLQQALTQTKTAVGTAELGVSQETISSLYAPVTVGQKALKEGAKSEEELGQT”, “not soluble”. To “MRYRDFDIFKFWFRAVEKFAPWVHKIYLITDNQVPDWLDTRNSKLTVIDHRDIMDADWLPTFNSNAIELNAYKIKNLSEKFVLFNDDTILNSYVDKVDFFDENYPKDIYVESPIMATKGSVDHIMVNNVEIINEFFEKKNFYKKNLTKVFNPKIGIKLLRTLALLPSSKFAGFWNSHLPISYNKTTFETVWSNCEGKLVATSKNKFRTAYDVSHWLMRYWQLASGNYHLQNNIGKVYDLSSQNIDEVVTQLQRSHSKIICLNDNDELDDYEGVKGKLVTTLNEKFSEKSKFELLEHHHHHH” belongs “not soluble”; to “MGSSHHHHHHSSGLVPRGSHMALSRGLPRELAEAVAGGRVLVVGAGGIGCELLKNLVLTGFSHIDLIDLDTIDVSNLNRQFLFQKKHVGRSKAQVAKESVLQFYPKANIVAYHDSIMNPDYNVEFFRQFILVMNALDNRAARNHVNRMCLAADVPLIESGTAGYLGQVTTIKKGVTECYECHPKPTQRTFPGCTIRNTPSEPIHCIVWAKYLFNQLFGEEDADQEVSPDRADPEAAWEPTEAEARARACNEDGDIKRISTKEWAKSTGYDPVKLFTKLFKDDIRYLLTMDKLWRKRKPPVPLDWAEVQSQGEETNASDQQNEPQLGLKDQQVLDVKSYARLFSKSIETLRVHLAEKGDGAELIWDKDDPSAMDFVTSAANLRMHIFSMNMKSRFDIKSMAGNIIPAIATTNAVIAGLIVLEGLKILSGKIDQCRTIFLNKQPNPRKKLLVPCALDPPNPNCYVCASKPEVTVRLNVHKVTVLTLQDKIVKEKFAMVAPDVQIEDGKGTILISSEEGETEANNHKKLSEFGIRNGSRLQADDFLQDYTLLINILHSEDLGKDVEFEVVGDAPEKVGPKQAEDAAKSITNGSDDGAQPSTSTAQEQDDVLIVDSDEEDSSNNADVSEEERSRKRKLDEKENLSAKRSRIEQKEELDDVIALD”, “soluble”; to “MGSDKIHHHHHHASNPVLRISDGWVADTIAPALIHYRFAGYDSISQAHQNVDVLEVDLTSPSYDIQLVYEEHGDSLSSVAERNNAAAAINGTYEAEASFIKIGGRLLAQNRLDSTHIRYWKHEGAFLFDDDNKNIDIRFASDSTFLSHPAANILSGAPMLIDNNDPVGLNFTGNVEGMDLNKLDYEDFRRHQGVRHPRTAVALTEHKKLLLITVDGRSTQAAGMSANELTRFLLTYFCPQSALNLDGGGSTTMWIASSEQRVGGVVNHPTDNKKFDHAGQRRVTSFIVIKSSENHE”, “not soluble”. Then “MKPVQSVSATQHYNPLTNLGQEASCSHEISGITQTEGMQATAATTQTAEQLTTARVRDITAAAKVIPDGTTVMSRKPEDLSQLQTAYLAAKNAPTHPDLYLKLCETFRVHDERHASEGHENICAKTMTARIDDDAIRVMAYASRGMHGGDVNNFLKFSFNSGLPNPISSALPSMLTFGASSFIGAVHGPWSGFGSALAFAAAKPFMAGGIQPAIVSLCDNIRGRNAPTVLAKGEVNDEIWLDAAAQTLEGLNEDTRRALTSFDDAVQAAITSVGIRDPKFLETDEGLELFFDHLSDTHFNCLREALEGVNNALQNTAPQTRESLRALEEASRPNMLEQRETTLKAEFSNLRQKEGNDWQRIPRSLRASGGTLTSGLSGLKRDEIPTRMNPALDRKSHFEGLNALASPAVGTSYAAAISLLQSPMAGLDERNKQKFNVKAAIVFYDAFTPEGKQRYLAGEEMDPDRDVDQAKLRGVFTSVSEYMVKSTQENLKQRQKVLGVEISEAGHALNALPENTSSITPPEIRAKVERYKALSADMSAVTQAIREGNPNFLTDLPDGEVKKAFDDCVNSGGMHVLENMTKVKYAKQGELKAQWTQKVSTDVSMFGLAGQFTPSIVNKLAAAICGGAGHIPNAVVGFLGAYSLAASFIGAQTQFAAINAKNNFREGNPKPTSLETFMRGNLAPVMQASANRHSQHALQGAEQAISTARQALNSSLGQNL”, with “not soluble”; and “GPGSMASHAEGRLLRRSVPYVESWIAELTPKPVAPAAGAAPAPKGKAKGGTASTGTENATPMSRCCFAVGKVLEVSRHPESEKLYIEKIDLGAELNMLSNNEPRTILSGLQEFVKEEDFVNRLVLVIANLEPRKIGGIPSAGMVLCASTGEDPHDPASAGQGERKVVLLDIPEGTAVGERVVFEGHDMPYEPVLKKKLAKNFEEVMKDVRSSADGEVCWQGKPFQTSAGVIKASLCNARIS”, with “soluble”; and “MNVNKPTTEKKLIDLNNDIIHNFDVSIVMSFYKRYTEFRKVLPHNAPYLQRNGIEVIIVLDDPDEKSELLMLLQNYPFINWKLIINERKHAPRNHASVLNVGLKHATKKYILQIDPEVEFLTDIIWQMRDAIEKYPMHYILAMMAYVPYEQELTENNIKELDFIPWGNLMVERNHLYKLHGYDETFITWGGEDNNMRARLDMSGIKKFILPEAKTIHREKNYDPNERSKRINKHSISDWRKMNYPSEAIANKDIWGSEFNKVIYDWQDNQYAKDLCYTYLQQFIGFEIRHPAAFRKRHKKIVLCQAYNEEKLIEGFLTNMANYFDGIILLDDESTDRTWDLAIHDKIILKVKKKRSGFNDLENRNILLDLSAFFQSEWFCFMDIDERFDERFTNFSEFENNKEIHVVSFRGVYLWNDEQSYKGDIPNSNKGILTVYRMFRPIGHTHINTHKKLHFIATPYFTNTWQSNILFKDYGSMKENDRIRKYERYIQEDQQKDMSSGYDYLLNSENLYQLDKIEEYLEHHHHHH”, with “not soluble”. On to “MAGTRDYDHLFKLLIIGDSGVGKSSLLLRFADNTFSENYITTIGVDFKIRTMDINGQRVKLQIWDTAGQERFRTITSTYYRGTHGVVVVYDVTNGESFGNVKRWLQEIENNCDSVQKVLVGNKCEENERRVVLESDARNYAQSMNISFFETSAKEDKNVEPMFTCITSLVLTAKLANPQSASKDQSRTGGVSLKDNSGSTNQKKKCKCG”, for which the “soluble on expression in E. coli” value is reported as “not soluble”. With “MAEASSANLGSGCEEKRHEGSSSESVPPGTTISRVKLLDTMVDTFLQKLVAAGSYQRFTDCYKCFYQLQPAMTQRIYDKFIAQLQTSIREEISDIKEEGNLEAVLNALDKIVEEGKVRKEPAWCEAQRCRVQQRCSLCVQAGGQRGSEETQALPVSMAGSPSPLPGSPGAQEGGV”, the “soluble on expression in E. coli” value is reported as “not soluble”. To “MAVKQPVPKDPAKVERIMHAAMHTFAVSGYRDAKTDVIASAATVSKGLLFHYYGSKQRLYLATVQLATDTIIATINQQVFDVPDDLVTLMVRSARYKAAFGKDHPDEMKVLIDAYGALERLPVKIQAQMKILYTKSMTISREMISQVLDKMTLRADVDRDATIALIMGVYNQIFMEFQTYMRENHQVESMADIEWVVSRAKTYMGILEHGFMAADLDDQQ” belongs “not soluble”; to “MQFSTVASIAAVAAVASAAANVTTATVSQESTTLVTITSCEDHVCSETVSPALVSTATVTVDDVITQYTTWCPLTTEAPKNGTSTAAPVTSTEAPKNTTSAAPTHSVTSYTGAAAKALPAAGALLAGAAALLL”, “soluble”. As for “MQSAKPLFDYPKYWAECFGPAPFLPMSREEMDLLGWDSCDIIIVTGDAYVDHPSFGMAIIGRLLESQGFRVGIIAQPNWQSKDDFMKLGEPNLFFGVAAGNMDSMINRYTADKKIRSDDAYTPGGMAGKRPDRASLVYSQRCKEAYKHVPIVLGGIEASLRRIAHYDYWQDKVRNSILIDACADILLYGNAERAIVEVAQRLSYGHKIEDITDVRGTAFIRRDTPQGWYEVDSTRIDRPGKVDKIINPYVNTQDTQACAIEQEKGNVEDPNEAKVVQILASPRMTRDKTVIRLPSVEKVRNDAVLYAHANRVLHLETNPGNARALVQKHGEVDVWFNPPPIPMTTDEMDYVFGMPYARVPHPAYGKEKIPAYDMIRFS”, the “soluble on expression in E. coli” value is listed as “not soluble”. On to “MGSDKIHHHHHHENLYFQGMWEIYDAMINGIPEDFLVDELVCGTTHSVIRSGNGVGLGPNRPFETRMPMLTQNLLGLPLRVAAGCVKSWNYVEASIGLAAINAYYNNPQVAREHGVIFSDAKRVEDRMNDPFIMSQNEVKGKKVGVVGHFPHLESLLEPICDLSILEWSPEEGDYPLPASEFILPECDYVYITCASVVDKTLPRLLELSRNARRITLVGPGTPLAPVLFEHGLQELSGFMVKDNARAFRIVAGAEKVKIYSAGQKVTIKK”, for which the “soluble on expression in E. coli” value was “soluble”.

On to “MGSDKIHHHHHHMLISANFDGGNIEVINQDDINNVQLAIRPDEGGEFFQWFNFRLQGEVGQRYTLNIINAGQASYTKGWEDYQAAATYDRQQWFRLPTQYQDGKLTIEVELDCEMIQIAYFAPYSYERHQDLLSAVQVHPLVSLEHLGKTLDDRDMTLVKVGDEDEEKAKIWITARQHPGETMAEWLVEGLLNNLLDGDCPTAKALLDKANFYIVPNMNPDGGVRGHLRTNAKGVNLNREWQSPSLEKSPEVYHVVNRMKETGVDLYYDVHGDEGLPYVFLAGCEGVPGYNQKMADLQGDFVKALLMASADFQDEFGYDKDEPGQANLTVASNWVAQTFGCLSNTLEMPFKDNANMPDPMSGWSPERCIYLGEASLLAMLAVVDKLR”, for which the “soluble on expression in E. coli” value was “not soluble”.

For “MGEEKKKRTVEITIGGKLRSFDIDDPVLPDWVEEKKLSAGNFPYDKKMKREDYDATLEALQVELVKVQFWLQATGKRVMAVFEGRDAAGKGGAIFATHAYLNPRYARVVALTKPTETERGQWYFQRYISHFPTAGEFVLFDRSWYNRAGVEPVMGFCTPDEHKRFLKETPRLEKMLVHDDIHLFKFWLDIGRETQIERFHDRRQSPLKCWKLSDMDIAALTKWDDYTQKRDEMLEKTHTDAAPWTVVRANDKRRARVNLIRHILLALDYEGKDRQAIGEIDDKILGSGPDFLK”, the “soluble on expression in E. coli” value is on record as “not soluble”. For the sequence “STMLRVRSRDGLERVSVDGPHITVSQLKTLIQDQLQIPIHNQTLSTNRNLLLAKSPSDFLAFTDMADPNLRISSLNLAHGSMVYLAYEGERTIRGGPAVTPAGSFGRKMTVEDLIARQMRVGRQEKAHCDSVSFDRDCANAFQHFVNESLAFAVKRGGFMYGNVSEDGQVEVNFIYEPPQQGMEDNLILMRDSEEEKRVDAIALGLGMRRVGFIFNQTVTQDKKEYTLSNVEVLLAAQLHAESELKEWVTAVVKLEINEDGGADVHFEPFQMSDMCVRLFKEGWFETEIGPEDDPKLSKLKKEVVVGVKDVKEVDNDFFLVLVKILDHQGPLSCTFPIENRNTQTTMRALKTHMERARSLPFVKRISDFHLLLFVAQFLDVSSDVPALAECVRLQSHVPEGYELLIDSMANTS”, the “soluble on expression in E. coli” value is given as “soluble”.
